Tests used:
Experiment in all cases: SPR
[1] = target: GST-CDH23 + exon68 (cytoplasmic region of cadherin-23 including the exon68-encoded sequence, residues 847-1114)
[2] = target: GST-CDH23 + exon68ΔITEL (residues 847-1110)
[3] = target: GST-CDH23Δexon68ΔITEL (residues 847-1075)
[4] = target: GST-CDH23Δexon68 (cytoplasmic region of cadherin-23 lacking the exon68-encoded sequence, residues 847-1079)

Measured: Kd

Sequence of harmonin-a PDZ3 domain (residues 434-545) (domain or fragment) (Q9ES64 434-545): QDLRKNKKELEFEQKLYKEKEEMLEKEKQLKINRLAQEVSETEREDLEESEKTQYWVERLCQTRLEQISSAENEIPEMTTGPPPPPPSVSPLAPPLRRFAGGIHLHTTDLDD

harmonin-a PDZ3 domain (residues 434-545) (domain or fragment)
> 5 µM: [1] | [2] | [3] | [4]

Reference: article PMC2928128
